What all share (assay type): cell-based
One assay has as its system Pyk2. As to the kind of experiment: sICAM-2 induced Pyk2 phosphorylation (phospho-tyrosine based ELISA, chemical genetic approach). An excerpt:
(§1) E) depicts that LFA-1, induced phosphorylation of Pyk2, and Syk is dependent on PKC. We screened for the inhibition of sICAM-2, induced Pyk2, and Syk phosphorylation by chemical inhibitors to tyrosine kinases using a phospho-tyrosine based ELISA. Pyk2, phosphorylation was abrogated in the presence of PKC inhibitors bisindolymaleimide II (BIM II) and staurosporine (STP), in addition to tyrphostin A9, a specific Pyk2, inhibitor. a Pyk2, phosphorylation was also affected by inhibitors of phospholipase Cg (neomycin), inhibitors of Syk (piceatannol), and PKC inhibitor BIM I. Syk phosphorylation was completely abolished by inhibition of Pyk2, PLCg1, and strongly affected by PKC inhibitors. Thus, both Pyk2, and Syk phosphorylations were dependent on PKC activity, while Syk phosphorylation was additionally dependent on PLCg1, and Pyk2, activity. It was not possible to assess specific PKC isozymes by this method.
A chemical genetic approach was undertaken to determine the hierarchy of PKC, Pyk2, PLCg1, and Syk activities in response to sICAM-2, stimulus by verifying phosphorylation status of each kinase in the presence of respective chemical inhibitors. Inhibition of PKC with BIM II abrogated phosphorylation of Pyk2, PLCg1, and Syk. Inhibition of PLCg1, by neomycin abrogated phosphorylation of Syk, with no inhibition observed for Pyk2. […] Thus, the upstream signaling events from LFA-1, to Raf-1, appear to involve PKC/Pyk2/PLCg1/Syk. […] We are currently pursuing these complexes in a separate study.

Another assay deals with Syk. Nature of the assay: sICAM-2 induced Syk phosphorylation (phospho-tyrosine based ELISA, chemical genetic approach). The note with it: sICAM-2 stimulus.
Text: as §1
A chemical genetic approach was undertaken to determine the hierarchy of PKC, Pyk2, PLCg1, and Syk activities in response to sICAM-2, stimulus by verifying phosphorylation status of each kinase in the presence of respective chemical inhibitors. Inhibition of PKC with BIM II abrogated phosphorylation of Pyk2, PLCg1, and Syk. Inhibition of PLCg1, by neomycin abrogated phosphorylation of Syk, with no inhibition observed for Pyk2. […]
(In an ELISA, binding on a coated surface is turned into a signal by an enzyme label.)

The next assay relates to HL60 cells. As to the kind of experiment: FACS based effector-target killing assay, human PBMC against CFSE labeled HL60 cells. The note with it: 10 μg/ml, 50:1 E:T ratio, 4 hrs. As to the method:
A) PBMC were either treated with ICAM-2, (10 μg/ml) in the presence of IL-2, for 12, hr and then incubated with CFSE labeled target HL60, cells at a 50:1, E:T ratio for 4, hrs. Remaining HL60, cells were quantified by flow cytometry. B) PBMC were treated with IL-2, (100, U/ml, 12, hrs) and treated with ICAM-1,-2, or 3, FC proteins (10, μg/ml) and used in a cytotoxicity assay as described above. Results are representative of 4, independent experiments.
(§2) Target cell lysis was measured by flow cytoemtric based detection of CFSE labeled HL60 cells. HL60 cells were labeled with 1 μg of CFSE (30 min, 37° C.). Targets were washed twice and mock treated, IL-2 activated (100 U/ml), CD3/CD28 activated (1 μg/ml), or treated with ICAM2 beads or soluble ICAM-1, -2, or 3 (10 μg/ml, 30 min, 37° C.) before plating at 10^4 target cells/well of a 96-well round bottom plate. CTLs were added at 50:1, 25:1, and 12.5:1 E:T ratio, and incubated at 37° C. for 4 hrs. Cells were then processed for multiparameter flow cytometry and intracellular perforin stain. Percent specific lysis was calculated by the following equation: % specific lysis=100-100×(experimental HL60 count/total control HL60 count). HL60 counts were detectable by the CFSE fluorescence. Percent perforin was calculated by the following equation: % perforin=100×[(experimental perforin MFI−isotype mAb MFI)/(total perforin MFI−isotype mAb MFI)]. MFI refers to mean fluorescent intensity of flow cytoemtric based intracellular detection. Cell conjugates were determined by flow cytometry as described (Morgan et al., 2001). Chemical inhibition was done at 10 μM of indicated compound (30 min, 37° C.) prior to stimulation as indicated. All experiments were performed in triplicate.

In assay [1] the test system is CD56 CD8 cytotoxic lymphocyte subsets. Nature of the assay: intracellular perforin and granzyme-A in CD56CD8 subsets of human PBMC by flow cytometry. Particulars: for granzyme-A negative population: CD56+CD8high population; for changes in intracellular perforin or granzyme-A: CD56+CD8low population; for frequency of the perforin negative population: CD56+CD8med population. As to the method: IL-2, activated PBMC (shown in A-1 and A-3) were mock-treated (IgG) (A-2) , ICAM-1, (A2), ICAM-2, (A4), or ICAM-3, (A4) treated (10, μg/ml of FC fusion protein) for 12 hrs prior to incubation with target HL60, cells at a 50:1, E:T ratio for 4, hrs. Cells were then prepared for flow cytometry with CD8-CY5PE, CD56-PE surface stains, and perforin-CY5, and granzyme-A-FITC intracellular stains. Cells were gated for CD56^+CD8^low, CD56^+CD8^med, CD56^+, CD8^high, CD56^−, CD8^−, , CD56^−-CD8^high, populations as shown in A-1 and A-3 and population frequencies within appropriate gate. […] Results are representative of 3 independent experiments and were similar at 25:1 and 12.5:1 E:T ratios (data not shown). Manual calibration was performed. […] Perforin percentage was calculated from the following equation where MFI equals mean fluorescent intensity: 100×[(MFIexperimental−MFIisotype mAb)/(MFIcontrol−MFlisotype mAb)] Unstimulated cells were used as control.
as §2

Regarding neomycin, the “phosphorylation of Pyk2” value in the assay on Pyk2 (chemical genetic approach, sICAM-2 stimulus) is listed as “no inhibition”. Besides, in the assay on Pyk2 (phospho-tyrosine based ELISA), the “sICAM-2 induced Pyk2 phosphorylation” value is recorded as “affected”. Also, the “phosphorylation of Syk” value with Syk is “abrogated”.

B1: ICAM-1: recombinant human ICAM-1-FC, soluble LFA-1 ligand (protein)
chain: QTSVSPSKVILPRGGSVLVTCSTSCDQPKLLGIETPLPKKELLLPGNNRKVYELSNVQEDSQPMCYSNCPDGQSTAKTFLTVYWTPERVELAPLPSWQPVGKNLTLRCQVEGGAPRANLTVVLLRGEKELKREPAVGEPAEVTTTVLVRRDHHGANFSCRTELDLRPQGLELFENTSAPYQLQTFVLPATPPQLVSPRVLEVDTQGTVVCSLDGLFPVSEAQVHLALGDQRLNPTVTYGNDSFSAKASVSVTAEDEGTQRLTCAVILGNQSQETLQTVTIYSFPAPNVILTKPEVSEGTEVTVKCEAHPRAKVTLNGVPAQPLGPRAQLLLKATPEDNGRSFSCSATLEVAGQLIHKNQTRELRVLYGPRLDERDCPGNWTWPENSQQTPMCQAWGNPLPELKCLKDGTFPLPIGESVTVTRDLEGTYLCRARSTQGEVTRKVTVNVLSPRYE
modifications: left off: a dimerising Fc or GST
notes: recombinant human ICAM-1-FC, soluble LFA-1 ligand
In the case of B1, the “target cell lysis of HL60 cells” value in the assay on HL60 cells was “did not initiate as potent a cytotoxic cell response”. In addition, in assay [1], the granzyme-A negative population was determined as 4.12%, the “changes in intracellular perforin or granzyme-A” value was “no significant changes” and the “frequency of the perforin negative population” value was 13.7%.

B2: ICAM-3: recombinant human ICAM3-FC, soluble LFA-1 ligand (protein)
chain: QEFLLRVEPQNPVLSAGGSLFVNCSTDCPSSEKIALETSLSKELVASGMGWAAFNLSNVTGNSRILCSVYCNGSQITGSSNITVYRLPERVELAPLPPWQPVGQNFTLRCQVEDGSPRTSLTVVLLRWEEELSRQPAVEEPAEVTATVLASRDDHGAPFSCRTELDMQPQGLGLFVNTSAPRQLRTFVLPVTPPRLVAPRFLEVETSWPVDCTLDGLFPASEAQVYLALGDQMLNATVMNHGDTLTATATATARADQEGAREIVCNVTLGGERREARENLTVFSFLGPIVNLSEPTAHEGSTVTVSCMAGARVQVTLDGVPAAAPGQPAQLQLNATESDDGRSFFCSATLEVDGEFLHRNSSVQLRVLYGPKIDRATCPQHLKWKDKTRHVLQCQARGNPYPELRCLKEGSSREVPVGIPFFVNVTHNGTYQCQASSSRGKYTLVVVMDIEAGSSH
modifications: left off: a dimerising Fc or GST
notes: recombinant human ICAM3-FC, soluble LFA-1 ligand
As for B2, the “target cell lysis of HL60 cells” value with HL60 cells is on record as “did not initiate as potent a cytotoxic cell response”. For the same molecule, in assay [1], the granzyme-A negative population amounted to 3.07%, the “changes in intracellular perforin or granzyme-A” value is “no significant changes” and the “frequency of the perforin negative population” value was found to be 19.8%.

These data come from patent US8962263B2, “Methods and compositions for detecting the activation state of multiple proteins in single cells” (The Board of Trustees of the Leland Stanford Junior …, priority 2001, dated 2015).
